Patent US20130315910A1 (Xencor, published 2013)
Numbering of substitutions follows the chain as printed. Numbers in names are those of the source. Values belong to the binder of their own block, whether it stands above or below them.

Assays:
mFcγRIV [1] = biological target: T1, mFcγRIV; assay: SPR, off-rate
T1 construct: also called mouse FcγRIV; not shown: C-terminal His and GST tags (named only on our card)
T1 chain: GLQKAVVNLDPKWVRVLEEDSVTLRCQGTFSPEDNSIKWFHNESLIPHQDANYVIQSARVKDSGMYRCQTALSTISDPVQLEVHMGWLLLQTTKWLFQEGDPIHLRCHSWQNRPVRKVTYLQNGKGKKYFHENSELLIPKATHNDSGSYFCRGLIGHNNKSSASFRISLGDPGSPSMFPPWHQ
Description: (§1) Variants were screened for receptor affinity using Biacore™ technology, also referred to as Biacore herein, a surface plasmon resonance (SPR) based technology for studying biomolecular interactions in real time. SPR measurements were performed using a Biacore 3000 instrument (Biacore, Piscataway, N.J.). A protein A/G (Pierce Biotechnology) CM5 biosensor chip (Biacore) was generated using a standard primary amine coupling protocol. All measurements were performed using HBS-EP buffer (10 mM HEPES pH 7.4, 0.15 M NaCl, 3 mM EDTA, 0.005% vol/vol surfactant P20, Biacore). Antibodies at 20 nM or 50 nM in HBS-EP buffer were immobilized on the protein A/G surface and FcγRs were injected. After each cycle, the surface was regenerated by injecting glycine buffer (10 mM, pH 1.5). Data were processed by zeroing time and response before the injection of FcγR and by subtracting appropriate nonspecific signals (response of reference channel and injection of running buffer). Kinetic analyses were performed by global fitting of binding data with a 1:1 Langmuir binding model using BIAevaluation software (Biacore).
(§2) Variant antibodies were tested for their affinity to mouse or cynologous monkey FcγRs using Biacore SPR as described above. Specifically, antibodies were first immobilized on a protein A/G chip to high density, and then followed by injections of the extracellular domain of the mouse or cynologous monkey FcγR of interest. Both association and dissociation phases were tracked in real time using the Biacore technology.

mFcγRIIb [2] = biological target: T2, mFcγRIIb (Mus musculus, UniProt P08101); assay: SPR, off-rate
T2 construct: extracellular region, C-terminal His- and GST-tag; also called mouse FcγRII
T2 sequence (receptor extracellular region, looked up): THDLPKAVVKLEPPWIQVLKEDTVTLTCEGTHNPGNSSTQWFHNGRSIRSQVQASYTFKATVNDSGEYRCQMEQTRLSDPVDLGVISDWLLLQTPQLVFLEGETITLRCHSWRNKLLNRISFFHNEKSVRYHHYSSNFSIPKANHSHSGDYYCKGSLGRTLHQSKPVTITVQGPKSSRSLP
Description: as §1, §2

cynoFcγRIIIa [3] = biological target: T3, cynoFcγRIIIa (Macaca fascicularis, UniProt Q8SPW2); assay: SPR, off-rate
T3 construct: extracellular region, C-terminal His- and GST-tag; also called cynomolgus monkey FcγRIIIa
T3 sequence (Q8SPW2 17-208): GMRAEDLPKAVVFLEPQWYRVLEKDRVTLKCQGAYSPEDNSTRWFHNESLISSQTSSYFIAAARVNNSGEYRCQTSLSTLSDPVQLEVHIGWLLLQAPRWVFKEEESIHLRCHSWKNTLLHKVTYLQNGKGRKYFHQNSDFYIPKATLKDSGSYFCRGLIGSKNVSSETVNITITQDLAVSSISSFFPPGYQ
Description: as §1, §2

cynoFcγRIIb [4] = biological target: T4, cynoFcγRIIb (Macaca fascicularis, UniProt A0A140HDP4); assay: SPR
T4 construct: extracellular region, C-terminal His- and GST-tag; also called cynomolgus monkey FcγRIIb
T4 sequence (receptor extracellular region): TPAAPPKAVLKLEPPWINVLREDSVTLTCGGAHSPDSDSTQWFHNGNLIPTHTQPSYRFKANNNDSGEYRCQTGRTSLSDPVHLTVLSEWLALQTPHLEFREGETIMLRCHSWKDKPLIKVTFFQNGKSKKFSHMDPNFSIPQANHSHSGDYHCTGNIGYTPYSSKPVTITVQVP

[5] = biological target: T5, human FcγRIIb receptor protein (R&D Systems) (human, UniProt P31994 46-217); assay: SPR
T5 construct: Bought protein injected over captured antibody in Biacore; also called CD32b
T5 sequence (looked up): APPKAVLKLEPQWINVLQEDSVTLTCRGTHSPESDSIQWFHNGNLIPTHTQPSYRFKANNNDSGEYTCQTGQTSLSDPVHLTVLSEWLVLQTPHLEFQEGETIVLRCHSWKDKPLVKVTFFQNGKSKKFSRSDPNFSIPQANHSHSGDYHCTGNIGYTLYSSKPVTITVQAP

[6] = biological target: T6, human FcγRIIIa (158V), His- and GST-tagged (human, UniProt P08637 17-208); assay: SPR
T6 construct: also called V158 FcγRIIIa; VIIIa; not shown: 6xHis and GST tags of the pTT5 vector
T6 sequence (P08637 17-208 F176V): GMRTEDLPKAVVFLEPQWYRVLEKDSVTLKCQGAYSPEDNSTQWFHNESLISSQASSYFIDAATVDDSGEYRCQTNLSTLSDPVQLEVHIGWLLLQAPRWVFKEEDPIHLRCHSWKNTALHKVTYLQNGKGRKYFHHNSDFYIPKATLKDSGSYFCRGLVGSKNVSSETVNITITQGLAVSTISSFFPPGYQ

[7] = biological target: T7, human FcγRI receptor protein (R&D Systems) (human, UniProt P12314 16-288); assay: SPR
T7 construct: also called soluble FcγRI; solFcγRI
T7 sequence (P12314 16-288 limits assumed): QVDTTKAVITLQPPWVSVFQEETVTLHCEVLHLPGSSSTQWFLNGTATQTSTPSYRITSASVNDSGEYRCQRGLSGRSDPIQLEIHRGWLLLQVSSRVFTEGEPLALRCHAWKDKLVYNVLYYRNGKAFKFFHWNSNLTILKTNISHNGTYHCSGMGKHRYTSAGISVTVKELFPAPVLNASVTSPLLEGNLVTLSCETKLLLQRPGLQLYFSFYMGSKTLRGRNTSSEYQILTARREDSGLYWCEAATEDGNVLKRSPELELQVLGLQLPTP

[8] = biological target: T8, human FcγRIIa (131R), His- and GST-tagged (human, UniProt P12318 34-217); assay: SPR
T8 construct: Expressed in HEK293T cells, purified by nickel chromatography; also called R131 FcγRIIa; not shown: 6xHis and GST tags of the pTT5 vector
T8 sequence (looked up): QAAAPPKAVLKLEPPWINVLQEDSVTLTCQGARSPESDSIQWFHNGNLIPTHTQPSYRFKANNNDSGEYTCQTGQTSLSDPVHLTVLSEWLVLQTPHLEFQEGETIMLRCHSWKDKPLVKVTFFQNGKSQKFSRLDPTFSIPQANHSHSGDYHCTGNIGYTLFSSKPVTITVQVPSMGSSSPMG

[9] = biological target: T9, human FcγRIIa (131H), His- and GST-tagged (human, UniProt P12318 34-217); assay: SPR
T9 construct: also called H131 FcγRIIa; HIIa; not shown: 6xHis and GST tags of the pTT5 vector
T9 sequence (looked up): T8 sequence (looked up) with R134H

cynoFcγRIIb [10] = biological target: T4, cynoFcγRIIb; assay: SPR, off-rate
Description: as §1, §2

mFcγRIV [11] = biological target: T1, mFcγRIV; assay: SPR
cynoFcγRIIIa [12] = biological target: T3, cynoFcγRIIIa; assay: SPR
mFcγRIIb [13] = biological target: T2, mFcγRIIb; assay: SPR
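Wherever Fold vs WT IgG1 (off-rate) is given: fold improvement over WT IgG1 so higher means slower dissociation than WT.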

B2: G236V (antibody, human IgG1, kappa)
heavy: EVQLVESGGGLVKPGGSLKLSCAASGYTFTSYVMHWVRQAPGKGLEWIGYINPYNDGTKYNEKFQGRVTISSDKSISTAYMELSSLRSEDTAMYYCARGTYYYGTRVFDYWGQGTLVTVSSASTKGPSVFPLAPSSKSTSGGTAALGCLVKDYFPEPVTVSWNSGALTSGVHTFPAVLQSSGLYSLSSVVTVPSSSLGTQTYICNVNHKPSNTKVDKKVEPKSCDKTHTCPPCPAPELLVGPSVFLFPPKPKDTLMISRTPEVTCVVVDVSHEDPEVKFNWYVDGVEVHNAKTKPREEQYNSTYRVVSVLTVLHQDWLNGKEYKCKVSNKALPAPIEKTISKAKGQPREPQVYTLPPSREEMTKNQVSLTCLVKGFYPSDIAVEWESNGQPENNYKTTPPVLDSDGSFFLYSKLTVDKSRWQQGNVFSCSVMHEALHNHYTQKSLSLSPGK
light: DIVMTQSPATLSLSPGERATLSCRSSKSLQNVNGNTYLYWFQQKPGQSPQLLIYRMSNLNSGVPDRFSGSGSGTEFTLTISSLEPEDFAVYYCMQHLEYPITFGAGTKLEIKRTVAAPSVFIFPPSDEQLKSGTASVVCLLNNFYPREAKVQWKVDNALQSGNSQESVTEQDSKDSTYSLSSTLTLSKADYEKHKVYACEVTHQGLSSPVTKSFNRGEC
notes: HuAM4G7 anti-CD19 IgG1 (m1) with this Fc substitution, EU index; copies: 2 + 2
- binding result (mFcγRIV [1]): no binding
- binding result (mFcγRIIb [2]): no binding
- binding result (cynoFcγRIIIa [3]): no binding
- Fold vs WT IgG1 (off-rate) (cynoFcγRIIb [4]): 0.703 fold
- Fold vs WT IgG1 [5]: 0.0147 fold
- Kd [5]: 100000 nM
- Fold vs WT IgG1 [8]: 0.106 fold
- Kd [8]: 8080 nM

B5: L234Q (antibody, human IgG1, kappa)
heavy: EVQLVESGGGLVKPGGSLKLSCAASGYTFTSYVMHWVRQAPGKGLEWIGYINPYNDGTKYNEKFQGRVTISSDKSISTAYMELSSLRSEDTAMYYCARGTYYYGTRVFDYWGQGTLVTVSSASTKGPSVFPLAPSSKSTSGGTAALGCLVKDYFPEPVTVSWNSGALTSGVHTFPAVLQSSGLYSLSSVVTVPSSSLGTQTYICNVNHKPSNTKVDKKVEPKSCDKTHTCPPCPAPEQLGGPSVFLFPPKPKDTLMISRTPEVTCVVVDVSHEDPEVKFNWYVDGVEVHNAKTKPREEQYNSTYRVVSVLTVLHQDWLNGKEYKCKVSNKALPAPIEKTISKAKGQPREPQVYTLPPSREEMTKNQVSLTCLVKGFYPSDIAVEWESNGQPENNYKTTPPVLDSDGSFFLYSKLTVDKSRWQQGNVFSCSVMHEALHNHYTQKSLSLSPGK
light: B2 light
notes: as for B2
- binding result (cynoFcγRIIb [10]): no binding
- binding result (mFcγRIV [1]): no binding
- binding result (mFcγRIIb [2]): no binding
- Fold vs WT IgG1 (off-rate) (cynoFcγRIIIa [12]): 0.379 fold
- Fold vs WT IgG1 [5]: 0.147 fold
- Kd [5]: 10000 nM
- Fold vs WT IgG1 [8]: 0.0372 fold
- Kd [8]: 23100 nM

B6: G236F (antibody, human IgG1, kappa)
heavy: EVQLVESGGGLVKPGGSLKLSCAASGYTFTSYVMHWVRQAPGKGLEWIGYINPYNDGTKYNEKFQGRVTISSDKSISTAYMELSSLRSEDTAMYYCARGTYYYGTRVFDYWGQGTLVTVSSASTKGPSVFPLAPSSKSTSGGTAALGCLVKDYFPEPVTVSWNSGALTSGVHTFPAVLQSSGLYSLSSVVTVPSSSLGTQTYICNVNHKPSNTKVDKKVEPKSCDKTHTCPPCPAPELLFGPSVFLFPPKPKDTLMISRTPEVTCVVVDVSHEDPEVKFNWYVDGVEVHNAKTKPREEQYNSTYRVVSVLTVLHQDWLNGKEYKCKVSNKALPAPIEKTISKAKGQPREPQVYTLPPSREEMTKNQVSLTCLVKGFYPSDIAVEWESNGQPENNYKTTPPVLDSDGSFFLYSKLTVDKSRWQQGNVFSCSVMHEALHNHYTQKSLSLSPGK
light: B2 light
notes: as for B2
- binding result (cynoFcγRIIb [10]): no binding
- binding result (mFcγRIV [1]): no binding
- binding result (mFcγRIIb [2]): no binding
- Fold vs WT IgG1 (off-rate) (cynoFcγRIIIa [12]): 0.138 fold
- Fold vs WT IgG1 [5]: 0.0147 fold
- Kd [5]: 100000 nM
- Fold vs WT IgG1 [8]: 0.00859 fold
- Kd [8]: 100000 nM

B7: L234G (antibody, human IgG1, kappa)
heavy: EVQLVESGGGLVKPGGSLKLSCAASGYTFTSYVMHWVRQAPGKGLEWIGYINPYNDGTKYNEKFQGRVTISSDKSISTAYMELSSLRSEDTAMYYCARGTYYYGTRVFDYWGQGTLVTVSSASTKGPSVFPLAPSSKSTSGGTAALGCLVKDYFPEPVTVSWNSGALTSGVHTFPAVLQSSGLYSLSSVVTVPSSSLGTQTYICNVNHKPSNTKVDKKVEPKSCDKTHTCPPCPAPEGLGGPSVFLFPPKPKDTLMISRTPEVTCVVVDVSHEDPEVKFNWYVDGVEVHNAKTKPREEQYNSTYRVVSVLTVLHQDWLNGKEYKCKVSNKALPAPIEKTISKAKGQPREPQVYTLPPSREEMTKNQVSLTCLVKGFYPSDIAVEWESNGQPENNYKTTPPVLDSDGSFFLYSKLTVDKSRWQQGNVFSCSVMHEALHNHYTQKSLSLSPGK
light: B2 light
notes: as for B2
- binding result (cynoFcγRIIb [10]): no binding
- binding result (mFcγRIV [1]): no binding
- binding result (mFcγRIIb [2]): no binding
- Fold vs WT IgG1 (off-rate) (cynoFcγRIIIa [12]): 0.113 fold
- Fold vs WT IgG1 [5]: 0.147 fold
- Kd [5]: 10000 nM
- Fold vs WT IgG1 [8]: 0.0859 fold
- Kd [8]: 10000 nM

B8: L235A (antibody, human IgG1, kappa)
heavy: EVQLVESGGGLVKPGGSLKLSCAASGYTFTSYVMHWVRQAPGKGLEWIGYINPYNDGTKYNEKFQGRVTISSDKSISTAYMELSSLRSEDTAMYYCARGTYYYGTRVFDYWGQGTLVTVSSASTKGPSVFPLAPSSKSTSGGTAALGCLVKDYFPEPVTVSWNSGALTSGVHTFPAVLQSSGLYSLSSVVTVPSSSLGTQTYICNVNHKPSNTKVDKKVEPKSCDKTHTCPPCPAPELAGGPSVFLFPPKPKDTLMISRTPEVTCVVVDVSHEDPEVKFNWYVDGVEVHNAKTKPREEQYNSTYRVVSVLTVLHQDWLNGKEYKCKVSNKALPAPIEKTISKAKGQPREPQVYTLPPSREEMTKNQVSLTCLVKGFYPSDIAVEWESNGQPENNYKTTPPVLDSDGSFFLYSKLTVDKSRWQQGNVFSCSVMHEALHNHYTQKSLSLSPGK
light: B2 light
notes: as for B2
- binding result (cynoFcγRIIb [10]): no binding
- binding result (mFcγRIIb [2]): no binding
- Fold vs WT IgG1 (off-rate) (mFcγRIV [11]): 0.496 fold
- Fold vs WT IgG1 (off-rate) (cynoFcγRIIIa [12]): 0.53 fold
- Fold vs WT IgG1 [5]: 0.351 fold
- Kd [5]: 4180 nM
- Fold vs WT IgG1 [6]: 0.314 fold
- Kd [6]: 609 nM
- Fold vs WT IgG1 [7]: 0.0179 fold
- Kd [7]: 18.4 nM
- Fold vs WT IgG1 [8]: 0.166 fold
- Kd [8]: 5180 nM
- Fold vs WT IgG1 [9]: 0.0486 fold
- Kd [9]: 13300 nM

B10: S298E (antibody, human IgG1, kappa)
heavy: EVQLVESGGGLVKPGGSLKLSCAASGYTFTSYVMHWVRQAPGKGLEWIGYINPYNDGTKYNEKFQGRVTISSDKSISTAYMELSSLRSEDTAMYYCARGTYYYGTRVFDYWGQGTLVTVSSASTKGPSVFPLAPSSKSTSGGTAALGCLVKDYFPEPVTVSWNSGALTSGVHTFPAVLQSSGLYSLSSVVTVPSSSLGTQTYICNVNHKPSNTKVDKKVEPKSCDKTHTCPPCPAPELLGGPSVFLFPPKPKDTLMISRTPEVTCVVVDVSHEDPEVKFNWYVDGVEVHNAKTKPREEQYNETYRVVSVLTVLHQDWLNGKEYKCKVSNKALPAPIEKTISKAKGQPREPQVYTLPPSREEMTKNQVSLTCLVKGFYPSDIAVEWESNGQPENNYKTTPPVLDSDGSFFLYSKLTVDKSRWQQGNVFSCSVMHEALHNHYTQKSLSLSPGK
light: B2 light
notes: as for B2
- binding result (cynoFcγRIIb [10]): no binding
- binding result (mFcγRIIb [2]): no binding
- Fold vs WT IgG1 (off-rate) (mFcγRIV [11]): 0.136 fold
- Fold vs WT IgG1 (off-rate) (cynoFcγRIIIa [12]): 0.046 fold
- binding result [5]: no binding
- binding result [8]: no binding

B12: S298D (antibody, human IgG1, kappa)
heavy: not shown
light: B2 light
notes: as for B2
- binding result (cynoFcγRIIb [10]): no binding
- binding result (mFcγRIIb [2]): no binding
- Fold vs WT IgG1 (off-rate) (mFcγRIV [11]): 0.618 fold
- Fold vs WT IgG1 (off-rate) (cynoFcγRIIIa [12]): 0.309 fold
- Fold vs WT IgG1 [5]: 0.797 fold
- Kd [5]: 1840 nM
- Fold vs WT IgG1 [8]: 1.45 fold
- Kd [8]: 592 nM

The remaining lines, values ahead:

- binding result (mFcγRIV [1]): no binding
- binding result (mFcγRIIb [2]): no binding
- binding result (cynoFcγRIIIa [3]): no binding
- Fold vs WT IgG1 (off-rate) (cynoFcγRIIb [4]): 0.587 fold
- Fold vs WT IgG1 [5]: 19.8 fold
- Kd [5]: 74.2 nM
- binding result [6]: no binding
- Fold vs WT IgG1 [7]: 0.0355 fold
- Kd [7]: 9.27 nM
- Fold vs WT IgG1 [8]: 3.27 fold
- Kd [8]: 263 nM
- binding result [9]: no binding
B1: G236N/S267E (antibody, human IgG1, kappa)
heavy: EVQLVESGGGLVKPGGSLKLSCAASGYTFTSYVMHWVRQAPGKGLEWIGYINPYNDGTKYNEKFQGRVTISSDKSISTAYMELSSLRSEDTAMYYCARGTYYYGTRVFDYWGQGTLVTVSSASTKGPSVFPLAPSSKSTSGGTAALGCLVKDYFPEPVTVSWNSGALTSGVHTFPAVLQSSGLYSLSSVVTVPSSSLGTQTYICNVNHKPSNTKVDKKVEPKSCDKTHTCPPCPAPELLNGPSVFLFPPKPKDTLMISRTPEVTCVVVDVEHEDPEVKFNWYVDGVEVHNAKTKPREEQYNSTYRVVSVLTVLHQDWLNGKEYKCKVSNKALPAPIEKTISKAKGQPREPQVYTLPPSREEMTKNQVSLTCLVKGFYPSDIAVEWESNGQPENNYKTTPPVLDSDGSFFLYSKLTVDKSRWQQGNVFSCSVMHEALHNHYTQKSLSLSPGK
light: B2 light
notes: HuAM4G7 anti-CD19 IgG1 (m1) with these Fc substitutions, EU index; copies: 2 + 2

- binding result (cynoFcγRIIb [10]): no binding
- binding result (mFcγRIIb [2]): no binding
- binding result (cynoFcγRIIIa [3]): no binding
- Fold vs WT IgG1 (off-rate) (mFcγRIV [11]): 0.24 fold
- Fold vs WT IgG1 [5]: 31.5 fold
- Kd [5]: 46.6 nM
- Fold vs WT IgG1 [8]: 41.5 fold
- Kd [8]: 20.7 nM
B3: S267E/N325L (antibody, human IgG1, kappa)
heavy: not shown
light: B2 light
notes: as for B1

- binding result (cynoFcγRIIb [10]): no binding
- binding result (mFcγRIV [1]): no binding
- binding result (mFcγRIIb [2]): no binding
- Fold vs WT IgG1 (off-rate) (cynoFcγRIIIa [12]): 0.327 fold
- Fold vs WT IgG1 [5]: 11.4 fold
- Kd [5]: 129 nM
- Fold vs WT IgG1 [8]: 36.5 fold
- Kd [8]: 23.5 nM
B4: G236E/S267E (antibody, human IgG1, kappa)
heavy: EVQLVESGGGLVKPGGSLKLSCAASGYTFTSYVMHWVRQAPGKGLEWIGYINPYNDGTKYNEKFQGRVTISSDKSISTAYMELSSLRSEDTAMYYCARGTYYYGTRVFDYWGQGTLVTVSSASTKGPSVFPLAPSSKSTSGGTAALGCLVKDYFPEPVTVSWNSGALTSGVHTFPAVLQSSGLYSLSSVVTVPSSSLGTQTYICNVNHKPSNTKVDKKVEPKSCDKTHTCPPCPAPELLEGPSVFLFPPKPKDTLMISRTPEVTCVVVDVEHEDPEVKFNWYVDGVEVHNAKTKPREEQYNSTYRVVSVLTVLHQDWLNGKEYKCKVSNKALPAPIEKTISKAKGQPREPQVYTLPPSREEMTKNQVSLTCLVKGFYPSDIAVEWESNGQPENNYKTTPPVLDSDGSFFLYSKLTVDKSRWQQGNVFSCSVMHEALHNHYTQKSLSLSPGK
light: B2 light
notes: as for B1

- binding result (mFcγRIV [1]): no binding
- binding result (cynoFcγRIIIa [3]): no binding
- Fold vs WT IgG1 (off-rate) (cynoFcγRIIb [4]): 0.42 fold
- Fold vs WT IgG1 (off-rate) (mFcγRIIb [13]): 1.11 fold
- Fold vs WT IgG1 [5]: 5.17 fold
- Kd [5]: 284 nM
- Fold vs WT IgG1 [8]: 4.64 fold
- Kd [8]: 185 nM
B9: S267E/L328H (antibody, human IgG1, kappa)
heavy: not shown
light: B2 light
notes: as for B1

- binding result (cynoFcγRIIb [10]): no binding
- binding result (mFcγRIIb [2]): no binding
- binding result (cynoFcγRIIIa [3]): no binding
- Fold vs WT IgG1 (off-rate) (mFcγRIV [11]): 0.347 fold
- Fold vs WT IgG1 [5]: 5.58 fold
- Kd [5]: 263 nM
- Fold vs WT IgG1 [8]: 1.02 fold
- Kd [8]: 838 nM
B11: L235R (antibody, human IgG1, kappa)
heavy: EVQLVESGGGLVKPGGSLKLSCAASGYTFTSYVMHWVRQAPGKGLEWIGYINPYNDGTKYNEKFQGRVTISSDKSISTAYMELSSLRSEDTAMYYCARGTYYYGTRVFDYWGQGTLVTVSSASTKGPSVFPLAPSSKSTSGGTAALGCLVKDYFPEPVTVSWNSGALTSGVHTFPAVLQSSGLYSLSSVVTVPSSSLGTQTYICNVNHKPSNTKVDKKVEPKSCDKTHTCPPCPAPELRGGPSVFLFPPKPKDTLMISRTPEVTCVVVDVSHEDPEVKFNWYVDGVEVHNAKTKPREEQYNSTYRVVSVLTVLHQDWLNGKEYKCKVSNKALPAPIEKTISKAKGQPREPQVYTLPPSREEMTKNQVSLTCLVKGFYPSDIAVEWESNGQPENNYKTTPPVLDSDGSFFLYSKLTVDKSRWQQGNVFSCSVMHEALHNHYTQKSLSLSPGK
light: B2 light
notes: as for B2

- binding result (mFcγRIV [1]): no binding
- Fold vs WT IgG1 (off-rate) (cynoFcγRIIb [4]): 0.495 fold
- Fold vs WT IgG1 (off-rate) (mFcγRIIb [13]): 1.04 fold
- Fold vs WT IgG1 (off-rate) (cynoFcγRIIIa [12]): 0.116 fold
- Fold vs WT IgG1 [5]: 21.7 fold
- Kd [5]: 67.8 nM
- Fold vs WT IgG1 [6]: 0.14 fold
- Kd [6]: 1370 nM
- Fold vs WT IgG1 [7]: 0.0286 fold
- Kd [7]: 11.5 nM
- Fold vs WT IgG1 [8]: 12.7 fold
- Kd [8]: 67.7 nM
B13: L234D/S267E (antibody, human IgG1, kappa)
heavy: not shown
light: B2 light
notes: as for B1
